According to patent US20200283521A1 (GRANULAR THERAPEUTICS, published 2020):

Experiments:
Test in all cases: cell array, transfected fixed HEK293 cells
[1] = target: T1, ANXA6 (human, UniProt P08133)
T1 construct: expressed in transfected HEK293 cells
T1 sequence (looked up): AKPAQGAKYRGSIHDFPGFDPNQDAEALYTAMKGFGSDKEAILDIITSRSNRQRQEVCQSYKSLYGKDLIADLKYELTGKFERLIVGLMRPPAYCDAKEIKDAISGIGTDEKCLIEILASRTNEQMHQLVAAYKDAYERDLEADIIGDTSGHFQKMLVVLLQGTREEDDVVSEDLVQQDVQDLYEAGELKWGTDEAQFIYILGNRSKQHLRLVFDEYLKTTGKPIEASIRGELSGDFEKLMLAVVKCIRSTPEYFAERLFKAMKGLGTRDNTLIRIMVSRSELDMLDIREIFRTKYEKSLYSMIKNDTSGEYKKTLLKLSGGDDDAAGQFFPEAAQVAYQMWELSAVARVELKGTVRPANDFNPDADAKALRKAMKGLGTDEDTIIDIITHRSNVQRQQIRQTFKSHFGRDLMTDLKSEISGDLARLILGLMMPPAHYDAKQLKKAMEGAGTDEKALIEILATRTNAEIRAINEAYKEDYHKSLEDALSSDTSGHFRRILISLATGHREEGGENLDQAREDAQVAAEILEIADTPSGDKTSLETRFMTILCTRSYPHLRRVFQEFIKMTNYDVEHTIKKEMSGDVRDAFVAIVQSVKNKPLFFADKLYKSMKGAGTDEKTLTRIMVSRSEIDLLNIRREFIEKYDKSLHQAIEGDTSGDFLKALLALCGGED
Procedure: (§1) Transfection of all plasmids was confirmed by screening for the co-encoded marker ZS green (FIG. 13A).
(§2) Primary hits (duplicate spots) were identified by analysing fluorescence (AF647 and ZsGreenl) on ImageQuant. Vectors encoding all hits were sequenced to confirm their correct identities. […] Slides were analysed as above.

[2] = target: T2, MSN (human, UniProt P26038)
T2 construct: expressed in transfected HEK293 cells
Procedure: as §1, §2

[3] = target: T3, DES (human, UniProt P17661)
T3 construct: expressed in transfected HEK293 cells
Procedure: as §1, §2

[4] = target: T4, TGM2 (human, UniProt P21980)
T4 construct: expressed in transfected HEK293 cells
T4 sequence (looked up): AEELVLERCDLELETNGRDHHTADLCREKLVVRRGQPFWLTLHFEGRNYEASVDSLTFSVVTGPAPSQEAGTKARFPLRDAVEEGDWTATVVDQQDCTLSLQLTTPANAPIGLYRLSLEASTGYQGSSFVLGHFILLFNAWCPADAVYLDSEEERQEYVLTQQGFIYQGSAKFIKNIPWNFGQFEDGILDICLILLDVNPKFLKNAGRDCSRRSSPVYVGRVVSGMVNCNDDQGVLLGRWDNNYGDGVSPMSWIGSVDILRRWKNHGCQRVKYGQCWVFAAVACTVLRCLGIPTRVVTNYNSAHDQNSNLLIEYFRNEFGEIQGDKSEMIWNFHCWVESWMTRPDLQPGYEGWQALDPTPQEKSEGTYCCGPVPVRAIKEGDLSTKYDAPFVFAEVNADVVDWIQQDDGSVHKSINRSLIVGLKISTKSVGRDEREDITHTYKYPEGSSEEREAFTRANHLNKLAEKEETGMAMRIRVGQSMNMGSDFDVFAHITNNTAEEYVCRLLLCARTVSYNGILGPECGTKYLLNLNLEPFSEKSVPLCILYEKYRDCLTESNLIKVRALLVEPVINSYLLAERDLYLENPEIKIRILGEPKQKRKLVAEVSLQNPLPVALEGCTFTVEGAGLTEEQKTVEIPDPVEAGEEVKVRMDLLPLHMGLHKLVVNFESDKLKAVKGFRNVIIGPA
Procedure: as §1, §2

[5] = target: T5, OSM (human, UniProt P13725)
T5 construct: expressed in transfected HEK293 cells
T5 sequence (looked up): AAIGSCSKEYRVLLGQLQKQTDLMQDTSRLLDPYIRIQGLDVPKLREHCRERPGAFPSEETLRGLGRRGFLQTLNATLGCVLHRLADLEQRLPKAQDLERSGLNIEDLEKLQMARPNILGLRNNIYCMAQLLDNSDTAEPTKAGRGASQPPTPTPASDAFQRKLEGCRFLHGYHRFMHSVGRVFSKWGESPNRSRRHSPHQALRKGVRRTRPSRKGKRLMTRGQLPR
Procedure: as §1, §2

[6] = target: T6, EDN2 (human, UniProt P20800)
T6 construct: expressed in transfected HEK293 cells
T6 sequence (looked up): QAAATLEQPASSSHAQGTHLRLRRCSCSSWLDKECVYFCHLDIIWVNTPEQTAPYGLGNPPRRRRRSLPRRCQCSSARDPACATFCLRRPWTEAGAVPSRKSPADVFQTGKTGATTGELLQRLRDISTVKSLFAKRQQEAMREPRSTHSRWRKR
Procedure: as §1, §2

[7] = target: T7, EDN1 (human, UniProt P05305)
T7 construct: expressed in transfected HEK293 cells
T7 sequence (looked up): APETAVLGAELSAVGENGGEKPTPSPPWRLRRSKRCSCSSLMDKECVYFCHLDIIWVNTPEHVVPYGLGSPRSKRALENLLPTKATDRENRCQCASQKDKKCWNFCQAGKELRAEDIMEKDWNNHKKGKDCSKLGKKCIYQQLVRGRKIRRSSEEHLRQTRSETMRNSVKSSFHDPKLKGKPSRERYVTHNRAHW
Procedure: as §1, §2

[8] = target: T8, PPT1 (human, UniProt P50897)
T8 construct: expressed in transfected HEK293 cells
T8 sequence (looked up): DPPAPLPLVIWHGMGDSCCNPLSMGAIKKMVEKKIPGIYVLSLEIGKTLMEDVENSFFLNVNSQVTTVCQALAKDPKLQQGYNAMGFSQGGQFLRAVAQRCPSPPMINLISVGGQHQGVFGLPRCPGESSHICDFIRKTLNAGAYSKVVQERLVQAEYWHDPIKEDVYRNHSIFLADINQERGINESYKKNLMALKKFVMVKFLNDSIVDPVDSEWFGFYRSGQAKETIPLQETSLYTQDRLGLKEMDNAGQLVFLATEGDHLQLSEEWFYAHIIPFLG
Procedure: as §1, §2

Measured: binding result

T2 sequence (P26038 2-577 limits assumed): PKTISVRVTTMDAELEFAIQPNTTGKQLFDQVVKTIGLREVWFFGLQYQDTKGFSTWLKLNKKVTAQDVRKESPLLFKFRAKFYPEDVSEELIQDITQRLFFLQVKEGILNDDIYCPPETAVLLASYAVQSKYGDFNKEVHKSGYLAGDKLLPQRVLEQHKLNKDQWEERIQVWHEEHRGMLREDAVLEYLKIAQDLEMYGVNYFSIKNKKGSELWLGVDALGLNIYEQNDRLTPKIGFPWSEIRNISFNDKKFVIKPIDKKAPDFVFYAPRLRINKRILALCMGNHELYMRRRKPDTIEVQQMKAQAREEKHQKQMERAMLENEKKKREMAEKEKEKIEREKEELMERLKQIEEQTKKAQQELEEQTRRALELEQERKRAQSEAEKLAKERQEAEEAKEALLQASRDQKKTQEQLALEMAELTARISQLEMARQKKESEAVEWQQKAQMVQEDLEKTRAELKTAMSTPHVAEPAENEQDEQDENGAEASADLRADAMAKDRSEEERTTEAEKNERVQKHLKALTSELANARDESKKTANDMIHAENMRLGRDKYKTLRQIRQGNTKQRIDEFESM
T3 sequence (P17661 2-470 limits assumed): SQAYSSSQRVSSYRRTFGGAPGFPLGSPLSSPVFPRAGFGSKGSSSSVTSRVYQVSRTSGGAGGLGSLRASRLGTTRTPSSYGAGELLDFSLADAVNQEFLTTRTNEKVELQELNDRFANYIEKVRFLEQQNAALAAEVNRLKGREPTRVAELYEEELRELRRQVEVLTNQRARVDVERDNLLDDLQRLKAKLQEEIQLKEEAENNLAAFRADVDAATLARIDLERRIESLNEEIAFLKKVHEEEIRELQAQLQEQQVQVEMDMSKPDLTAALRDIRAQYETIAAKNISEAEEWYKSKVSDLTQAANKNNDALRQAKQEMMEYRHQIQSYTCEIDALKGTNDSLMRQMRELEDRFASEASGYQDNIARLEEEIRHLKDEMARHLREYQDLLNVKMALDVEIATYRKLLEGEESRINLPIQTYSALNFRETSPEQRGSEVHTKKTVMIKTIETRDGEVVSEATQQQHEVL

B1: MH1, human IgG1 (antibody, V domains shown)
VH: QVQLVQSGAEVKKPGASVKVSCKASGYTFTDYYMNWVRQAPGQGLEWMGRIYPGSGNTYYAQKFQGRVTMTRDTSTSTVYMELSSLRSEDTAVYYCARGVYYYDYWGQGTLVTVSS
VL: DIQMTQSPSSLSASVGDRVTITCRASQGIRTNLAWFQQKPGKAPKSLIYAASSLQSGVPSRFSGSGSGTDFTLTISSLQPEDFATYYCQQYNSYPRTFGGGTKVEIK
notes: IgG1; also called IgG1-MH1
no binding (tested: 2 µg/ml): all assays above
